# Publication PMC4324299, “Characterization of interactions between inclusion membrane proteins from Chlamydia trachomatis” (Frontiers in Cellular and Infection Microbiology, 2015)
# B1: Ct222 (natural protein)
# chain: MRCCCVRTNYEEVRSSSTGDQVVSAVKERKCDSSLCRKIASVAFTLIGALLLGIGMVLSFALLGSSAGLIGVGVILSALGAVCLSLGLCKLFLRMKRVSLDKAEQKMLEDQVELLRQENQELKALVYSN
# notes: Ct222, putative inclusion membrane protein of C. trachomatis; also called Ct222 FL; source: bacterial two-hybrid (BACTH) fusion, co-expressed in E. coli DHT1; not shown: T25 (as bait) or T18 (as prey) fragment of B. pertussis adenylate cyclase, N-terminal, kept
# B2: Ct850 (natural protein)
# chain: MGFGTVRGKGKAVKSFFLRPLQNLEVGLFSLPIVLLLGEIGCVSSISSVSLVAVLSIVGVFVALVSFFRSWGYGLSVVGAIFFGLALCNNFPVSVFWGGLLTVSFIISYGILLLSVSLVEGHIKEKAVSLSELTASHNSLQDSYNREVQERKEKELLAQSKITALEQELSVSHEQLQEVSRKYTHASEDLQILIDQRDSWLKDYMTLHQEYVRVVAGDEENVIFPWKVFQGNSEKDSGYQQRVQDAEHKIAHLEKLCEEENSGKRYAEECLDKALADLLESTRLREILEKEIFQKDEEIASLKQEIAAEKLLSSSVSDDRAAYKGKYLQLREQFTVKDSFLKKARRERFLAQEQLLVLKRAKEEEASNLSTTDSFSIIQNLLLQIEALEEEVTYLEELVLHNQNR
# notes: Ct850, putative inclusion membrane protein of C. trachomatis; source: bacterial two-hybrid (BACTH) fusion, co-expressed in E. coli DHT1; not shown: T25 (as bait) or T18 (as prey) fragment of B. pertussis adenylate cyclase, N-terminal, kept
# Key:
# Assay in all cases: two-hybrid
# [1] = target: the molecule itself
# [2] = target: B2; conditions: partners not purified
# [3] = target: B1; conditions: partners not purified
binder,measurement,setting,value
B1,β-galactosidase activity,[1],317 relative units (RU)
same,β-galactosidase activity,[2],92 relative units (RU)
B2,β-galactosidase activity,[3],151 relative units (RU)
